Test results as given in publication PMC7891725, “Shared and distinct roles of Esc2 and Mms21 in suppressing genome rearrangements and regulating intracellular sumoylation” (PLoS ONE, 2021).

Biological target: T1, N-terminal Protein-A tagged Esc2 (WT) (S. cerevisiae, UniProt Q06340 1-456)
T1 construct: Esc2, S. cerevisiae, protein with two SUMO-like domains (SLD1, SLD2); details of plasmid construction are available upon request; also called WT Esc2; ScEsc2; source: bacteria (BL21 cells), purified with IgG sepharose resin; not shown: Protein A, N-terminal, kept
T1 sequence (looked up): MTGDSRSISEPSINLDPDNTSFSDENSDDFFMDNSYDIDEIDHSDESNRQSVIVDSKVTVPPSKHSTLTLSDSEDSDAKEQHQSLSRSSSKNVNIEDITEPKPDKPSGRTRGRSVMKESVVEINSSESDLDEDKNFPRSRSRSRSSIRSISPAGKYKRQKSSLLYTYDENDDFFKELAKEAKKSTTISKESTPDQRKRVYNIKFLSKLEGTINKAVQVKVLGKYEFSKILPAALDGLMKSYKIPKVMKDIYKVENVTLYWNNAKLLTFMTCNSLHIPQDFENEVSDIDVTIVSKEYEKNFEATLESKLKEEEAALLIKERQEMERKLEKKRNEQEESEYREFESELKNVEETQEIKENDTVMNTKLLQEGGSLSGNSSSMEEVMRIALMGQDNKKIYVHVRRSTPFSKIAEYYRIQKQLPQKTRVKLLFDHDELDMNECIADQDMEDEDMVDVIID
Assay: pull-down; 40 ug Protein-A-Esc2 (WT or D430R) bound to 20 uL IgG resin, incubated with 100 ug purified Ubc9 in 200 uL for 2 hours on ice; washed 5 times with PBS with 0.2% NP-40; bound Ubc9 eluted and seen by Coomassie staining
Details: both partners purified

B1: C-terminal 6xHIS tagged Ubc9 (enzyme, S. cerevisiae, UniProt P50623 1-157, looked up)
chain: MSSLCLQRLQEERKKWRKDHPFGFYAKPVKKADGSMDLQKWEAGIPGKEGTNWAGGVYPITVEYPNEYPSKPPKVKFPAGFYHPNVYPSGTICLSILNEDQDWRPAITLKQIVLGVQDLLDSPNPNSPAQEPAWRSFSRNKAEYDKKVLLQAKQYSK
notes: Ubc9, SUMO E2 conjugating enzyme, S. cerevisiae; also called Ubc9 SUMO conjugating enzyme; E2
  binding result: binds
